Results taken from doi:10.1101/736868 (bioRxiv, 2019).

Biological target: the molecule itself
Experiment: SEC-MALS; SEC-MALLS, S-200 Superdex 10/300, 0.5 ml/min, 1x PBS (legend: TBS), protein at 33 µM; monomer and dimer

B1: purified recombinant mouse CAVII protein (mCAVII) (enzyme, UniProt Q9ERQ8 1-264, looked up)
chain: MTGHHCWGYGQDDGPSNWHKLYPIAQGDRQSPINIISSQAVYSPSLQPLELFYEACMSLSITNNGHSVQVDFNDSDDRTVVSGGPLEGPYRLKQLHFHWGKKRDMGSEHTVDGKSFPSELHLVHWNAKKYSTFGEAAAAPDGLAVVGVFLETGDEHPSMNRLTDALYMVRFKDTKAQFSCFNPKCLLPTSRHYWTYPGSLTTPPLSESVTWIVLREPIRISERQMEKFRSLLFTSEDDERIHMVDNFRPPQPLKGRVVKASFQA
notes: carbonic anhydrase VII, mouse; theoretical size of the monomer printed as 30.5 kDa; also called carbonic anhydrase VII; source: CHOEBNALT85 cell line, produced as a secreted protein, purified
B1 was tested, and the “stoichiometry N” value was 2.
